Test results published in patent US20160053277A1, “Compositions Having Dicamba Decarboxylase Activity and Methods of Use” (PIONEER HI-BRED INTERNATIONAL, INC., priority 2013, published 2016).

B1: 154 (protein)
chain: MAQGKVALEEHFAIPETLQDSAGFVPGDYWKELQHRLLDIQDTRLKLMDAHGIETMILSLAAPAVQAIPDRHKAIEIARRANDFLAEECAKRPDRFLAFAALPLQDPDAATEELQRTVNDLGFVGALVNGFSQEGDGQTPLYYDLPQYRPFWGEVEKLDVPFYLHPRNPLPQDSRIYDGHPWLLGPTWAFAQETAVHALRLMASGLFDEHPRLNIILGHMGEGLPYMMYRIDHRIAWVHEPPRYPAKRRFMDYFNENFHITTSGNFRTQTLIDAILEIGADRILFSTDWPFENIDHAADWFNATSIAEADRVKIGRTNARRLFKLDGD
modifications: Dicamba decarboxylase variant
B2: 158 (protein)
chain: MAQGKVALEEHFAIPETLNDSAGFVPGDYWKELQHRLLDIQDTRLKLMDAHGIETMILSLAAPAVQAIPDRRKAIEIARRANDFLAEECAKRPDRFLAFAALPLQDPDAATEELQRCVNDLGFVGALVNGFSQEGDGQTPLYYDLPQYRPFWGEVEKLDVPFYLHPRNPLPQDSRIYDGHPWLLGPTWAFAQETAVHALRLMASGLFDEHPRLNIILGHMGEGLPYMMYRIDHRIAWVKLPPRYPAKRRFMDYFNENFHITTSGNFRTQTLIDAILEIGADRILFSTDWPFENIDHATAWFNATSIAEADRVKIGRTNARRLFKLDGA
modifications: Dicamba decarboxylase variant
B3: 204 (protein)
chain: MAQGKVALEEHFAIPETLQDSAGFVPGDYWKELQHRLLDIQDTRLKLMDAHGIETMILSLAAPAVQAIPDRVKAIEIARRANDMLAEECAKRPDRFLAFAALPLQDPDAATEELQRTVNDLGFVGALVNGFSQEGDGQTPLYYDLPQYRPFWGEVEKLDVPFYLHPRNPLPQDSRIYDGHPWLLGPTWAFAQETAVHALRLMASGLFDEHPRLNIILGHMGEGLPYMMYRIDHRIAWVHEPPRYPAKRRFMDYFNENFHITTSGNFRTQTLIDAILEIGADRILFSTDWPFENIDHAADWFNATSIAEADRLKIGRTNARRLFKLDGD
modifications: Dicamba decarboxylase variant
B4: 153 (protein)
chain: MAQGKVALEEHFAIPETLQDSAGFVPSEYLKELQHRLLDIQDTRLKLMDAHGIETMILSLAAPAVQAIPDRRKAIEIARRANDFLAEECAKRPDRFLAFAALPLQDVDAATEELQRCVNDLGFVGALVNGFSVEGDGQTPLYYDLPQYRPFWGEVEKLDVPFYLHPRNPLPQDSRIYDGHPWLLGPTWAFAQETAVHALRLMASGLFDEHPRLNIILGHLGEGLPYMMYRIDHRIAWVKLPPRYPAKRRFMDYFNENFHITTSGNFRTQTLIDAILEIGADRILFSTDWPFENIDHAADWFNATSIAEADRLKIGRTNARRLFKLDGD
modifications: Dicamba decarboxylase variant
B5: 159 (protein)
chain: MAQGKVALEEHFAIPETLQDSAGFVPGDYWKELQHRLLDIQDTRLKLMDAHGIETMILSLAAPAVQAIPDRRKAIEIARRANDFLAEECAKRPDRFLAFAALPLQDPDAATEELQRCVNDLGFVGALVNGFSVEGDGQTPLYYDLPQYRPFWGEVEKLDVPFYLHPRNPLPQDSRIYDGHPWLLGPTWAFAQETAVHALRLMASGLFDEHPRLNIILGHLGEGLPYMMYRIDHRIAWVKLPPRYPAKRRFMDYFNENFHITTSGNFRTQTLIDAILEIGADRILFSTDWPFENIDHAADWFNATSIAEADRVKIGRTNARRLFKLDGA
modifications: Dicamba decarboxylase variant
B6: 160 (protein)
chain: MAQGKVALEEHFAIPETLQDSAGFVPGDYWKELQHRLLDIQDTRLKLMDAHGIETMILSLAAPAVQAIPDRRKAIEIARRANDFLAEECAKRPDRFLAFAALPLQDPDAATEELQRCVNTLGFVGALVNGFSQEGDGQTPLYYDLPQYRPFWGEVEKLDVPFYLHPRNPLPQDSRIYDGHPWLLGPTWAFAQETAVHALRLMASGLFDEHPRLNIILGHMGEGLPYMMYRIDHRIAWVKLPPRYPAKRRFMDYFNENFHITTSGNFRTQTLIDAILEIGADRILFSTDWPFENIDHAADWFNATSIAEADRVKIGRTNARRLFKLDGD
modifications: Dicamba decarboxylase variant
B7: 161 (protein)
chain: MAQGKVALEEHFAIPETLQDSAGFVPGDYWKELQHRLLDIQDTRLKLMDAHGIETMILSLAAPAVQAIPDRRKAIEIARRANDFLAEECAKRPDRFLAFAALPLQDPDAATEELQRCVNDLGFVGALVNGFSVEGDGQTPLYYDLPQYRPFWGEVEKLDVPFYLHPRNPLPQDSRIYDGHPWLLGPTWAFAQETAVHALRLMASGLFDEHPRLNIILGHMGEGLPYMMYRIDHRIAWVKLPPRYPAKRRFMDYFNENFHITTSGNFRTQTLIDAILEIGADRILFSTDWPFENIDHATAWFNATSIAEADRVKIGRTNARRLFKLDGD
modifications: Dicamba decarboxylase variant
B8: 162 (protein)
chain: MAQGKVALEEHFAIPETLQDSAGFVPGDYWKELQHRLLDIQDTRLKLMDAHGIETMILSLAAPAVQAIPDRRKAIEIARRANDFLAEECAKRPDRFLAFAALPMQDVDAATEELQRCVNTLGFVGALVNGFSVEGDGQTPLYYDLPQYRPFWGEVEKLDVPFYLHPRNPLPQDSRIYDGHPWLLGPTWAFAQETAVHALRLMASGLFDEHPRLNIILGHLGEGLPYMMYRIDHRIAWVKLPPRYPAKRRFMDYFNENFHITTSGNFRTQTLIDAILEIGADRILFSTDWPFENIDHAADWFNATSIAEADRVKIGRTNARRLFKLDGA
modifications: Dicamba decarboxylase variant
B9: 201 (protein)
chain: MAQGKVALEEHFAIPETLQDSAGFVPGDYWKELQHRLLDIQDTRLKLMDAHGIETMILSLAAPAVQAIPDRRKAIEIARRANDFLAEECAKRPDRFLAFAALPLQDPDAATEELQRCVNDLGFVGALVNGFSVEGDGQTPLYYDLPQYRPFWGEVEKLDVPFYLHPRNPLPQDSRIYAGHPWLLGPTWAFAQETAVHALRLMASGLFDEHPRLNIILGHLGEGLPYMMYRIDHRIAWVKLPPRYPAKRRFMDYFNENFHITTSGNFRTQTLIDAILEIGADRILFSTDWPFENIDHAADWFNATSIAEADRVKIGRTNARRLFKLDGD
modifications: Dicamba decarboxylase variant
B10: 156 (protein)
chain: MAQGKVALEEHFAIPETLQDSAGFVPSDYLKELQHRLLDIQDTRLKLMDAHGIETMILSLAAPAVQAIPDRRKAIEIARRANDFLAEECAKRPDRFLAFAALPMQDPDAATEELQRCVNDLGFVGALVNGFSVEGDGQTPLYYDLPQYRPFWGEVEKLDVPFYLHPRNPLPQDSRIYDGHPWLLGPTWAFAQETAVHALRLMASGLFDEHPRLNIILGHLGEGLPYMMYRIDHRIAWVHEPPRYPAKRRFMDYFNENFHITTSGNFRTQTLIDAILEIGADRILFSTDWPFENIDHAADWFNATSIAEADRLKIGRTNARRLFKLDGA
modifications: Dicamba decarboxylase variant
B11: 155 (protein)
chain: MAQGKVALEEHFAIPETLQDSAGFVPGDYWKELQHRLLDIQDTRLKLMDAHGIETMILSLAAPAVQAIPDRRKAIEIARRANDFLAEECAKRPDRFLAFAALPLQDPDAATEELQRCVNDLGFVGALVNGFSVEGDGQTPLYYDLPQYRPFWGEVEKLDVPFYLHPRNPLPQDSRIYDGHPWLLGPTWAFAQETAVHALRLMASGLFDEHPRLNIILGHLGEGLPYMMYRIDHRIAWVHEPPRYPAKRRFMDYFNENFHITTSGNFRTQTLIDAILEIGADRILFSTDWPFENIDHAADWFNATSIAEADRLKIGRTNARRLFKLDGA
modifications: Dicamba decarboxylase variant
B12: 202 (protein)
chain: MAQGKVALEEHFAIPETLQDSAGFVPGDYWKELQHRLLDIQDTRLKLMDAHGIETMILSLAAPGVQAIPDRRKAIEIARRANDFLAEECAKRPDRFLAFAALPLQDPDAATEELQRCVNDLGFVGALVNGFSQEGDGQTPLYYDLPQYRPFWGEVEKLDVPFYLHPRNPLPQDSRIYDGHPWLLGPTWAFAQETAVHALRLMASGLFDEHPRLNIILGHMGEGLPYMMYRIDHRIAWVHEPPRYPAKRRFMDYFNENFHITTSGNFRTQTLIDAILEIGADRILFSTDWPFENIDHAADWFNATSIAEADRLKIGRTNARRLFKLDLD
modifications: Dicamba decarboxylase variant
B13: 203 (protein)
chain: MAQGKVALEEHFAIPETLQDSAGFVPGDYWKELQHRLLDIQDTRLKLMDAHGIETMILSLAAPAVQAIPDRRKAIEIARRANDFLAEECAKRPDRFLAFAALPLQDPDAATEELQRCVNDLGFVGALVNGFSVEGDGQTPLYYDLPQYRPFWGEVEKLDVPFYLHPRNPLPQDSRIYDGHPWLLGPTWAFAQETAVHALRLMASGLFDEHPRLNIILGHMGEGLPYMMYRIDHRIAWVHEPPRYPAKRRFMDYFLENFHITTSGNFRTQTLIDAILEIGADRILFSTDWPFENIDHAADWFNATSIAEADRLKIGRTNARRLFKLDGA
modifications: Dicamba decarboxylase variant
B14: 157 (protein)
chain: MAQGKVALEEHFAIPETLQDSAGFVPGDYWKELQHRLLDIQDTRLKLMDAHGIETMILSLAAPAVQAIPDRRKAIEIARRANDFLAEECAKRPDRFLAFAALPLQDPAAATEELQRCVNDLGFVGALVNGFSVEGDGQTPLYYDLPQYRPFWGEVEKLDVPFYLHPRNPLPQDSRIYDGHPWLLGPTWAFAQETAVHALRLMASGLFDEHPRLNIILGHMGEGLPYMMYRIDHRIAWVHEPPRYPAKRRFMDYFNENFHITTSGNFRTQTLIDAILEIGADRILFSTDWPFENIDHAADWFNATSIAEADRLKIGRTNARRLFKLDGD
modifications: Dicamba decarboxylase variant

Assays:
[1] = Shuffled variant libraries: 14CO2 capturing assay in 384-well format; settings: decarboxylation activity (carbon dioxide released) compared with unmutated backbone protein SEQ ID NO 133 (DDEC0201)
[2] = Saturation mutagenesis of SEQ ID NO:109: dicamba decarboxylation activity of point mutants (carbon dioxide released); settings: decarboxylation activity (carbon dioxide released) of point mutant compared with unmutated backbone protein; backbone SEQ ID NO: 109

| Molecule | Fold Activity [1] | Fold Activity [2] |
| --- | --- | --- |
| B1 | 1.3 | 1.3 |
| B2 | 1.0 | 1.6 |
| B3 | 1.0 | 2 |
| B4 | 1.8 | 1.7 |
| B5 | 1.0 | 1.5 |
| B6 | 1.1 | 1.7 |
| B7 | 1.1 | 1.5 |
| B8 | 1.0 | 1.4 |
| B9 | 1.5 | 1.2 |
| B10 | 1.5 | 1.5 |
| B11 | 1.2 | 1.5 |
| B12 | 2.2 | 1.4 |
| B13 | 2.3 | 1.1 |
| B14 | 1.2 | 1.4 |
